From patent US20260083641

System: collagen

Substance: N-terminally truncated recombinant collagenase G (ColG) from Clostridium histolyticum, residues Tyr119-Lys1118, with N-terminal His-tag and TEV cleavage site
- fluorescence intensity, in vitro collagenase activity assay: where all the reaction components were included (two most right bars) significantly higher fluorescence was detected

Substance: commercial collagenase (C.COL) (Sigma-Aldrich)
- collagenase activity relative to COLG: the activity of C.COL was significantly higher, increase of about 30%-40%, than that of COLG
- fluorescence intensity, in vitro collagenase activity assay: where all the reaction components were included (two most right bars) significantly higher fluorescence was detected
